According to patent US8889621B2, “Inhibiting binding of FGF23 to the binary FGFR-Klotho complex for the treatment of hypophosphatemia” (New York University, priority 2009, dated 2014):
“Also recorded” adds a separate entry of the source.

Target: T1, FGFR1c-βKlotho-FGF21 (UniProt P11362+Q99N32)
T1 construct: the ectodomain of murine βKlotho (F53 to L995) was expressed in HEK293 cells; FLAG (C); made in house; host or cells: E. coli (FGFR1c, FGF21); HEK293 (βKlotho ectodomain)
T1 sequence (P11362 142-365): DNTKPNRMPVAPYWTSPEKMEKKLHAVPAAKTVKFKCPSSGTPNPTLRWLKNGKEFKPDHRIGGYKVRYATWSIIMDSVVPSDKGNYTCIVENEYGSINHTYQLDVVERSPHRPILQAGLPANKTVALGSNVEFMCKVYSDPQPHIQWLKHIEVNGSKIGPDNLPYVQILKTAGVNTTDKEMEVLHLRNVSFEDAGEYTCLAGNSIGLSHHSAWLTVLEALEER
T1 sequence (Q99N32 53-995): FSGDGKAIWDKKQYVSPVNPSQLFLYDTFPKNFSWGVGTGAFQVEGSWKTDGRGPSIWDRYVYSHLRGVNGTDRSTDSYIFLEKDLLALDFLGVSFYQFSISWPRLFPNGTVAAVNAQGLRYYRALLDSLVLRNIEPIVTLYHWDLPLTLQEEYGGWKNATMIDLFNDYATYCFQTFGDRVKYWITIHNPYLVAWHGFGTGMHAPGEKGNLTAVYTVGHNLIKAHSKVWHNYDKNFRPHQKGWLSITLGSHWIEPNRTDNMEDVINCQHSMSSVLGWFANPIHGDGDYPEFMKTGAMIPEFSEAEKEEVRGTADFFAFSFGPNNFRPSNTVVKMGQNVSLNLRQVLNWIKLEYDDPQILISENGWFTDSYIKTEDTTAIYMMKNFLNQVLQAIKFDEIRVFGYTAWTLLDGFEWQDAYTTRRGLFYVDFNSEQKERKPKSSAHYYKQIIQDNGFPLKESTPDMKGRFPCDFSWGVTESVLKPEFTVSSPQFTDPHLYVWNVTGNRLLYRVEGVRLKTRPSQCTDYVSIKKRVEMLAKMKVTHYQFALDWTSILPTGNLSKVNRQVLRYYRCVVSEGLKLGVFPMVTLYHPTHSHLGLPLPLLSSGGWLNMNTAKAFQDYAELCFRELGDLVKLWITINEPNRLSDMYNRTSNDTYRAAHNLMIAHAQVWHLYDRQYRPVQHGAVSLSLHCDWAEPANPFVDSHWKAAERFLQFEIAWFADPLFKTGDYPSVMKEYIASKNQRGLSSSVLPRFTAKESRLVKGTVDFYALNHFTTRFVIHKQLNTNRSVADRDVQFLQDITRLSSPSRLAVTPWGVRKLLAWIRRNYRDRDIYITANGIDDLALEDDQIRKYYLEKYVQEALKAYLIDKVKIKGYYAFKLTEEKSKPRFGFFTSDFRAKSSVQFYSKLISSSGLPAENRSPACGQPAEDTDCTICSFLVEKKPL
Test: SPR specificity: FGFR1c-βKlotho binding to immobilized FGF21^29-209
Parameters: species or system human FGFR1c, murine βKlotho, human FGF21
Settings: 10-fold molar excess over FGFR1c-βKlotho

B1: FGF23^180-251: 72-amino acid C-terminal tail of human FGF23 (S180 to I251), expressed in E. coli (protein, listed as Homo sapiens)
chain: SAEDDSERDPLNVLKPRARMTPAPASCSQELPSAEDNSPMASDPLGVVRGGRVNTHAGGTGPEGCRPFAKFI
inhibition of FGFR1c-βKlotho binding to immobilized FGF21: did not affect; also recorded: no inhibition
